Consider 2 molecules from patent US20130315946A1.

The target in this assay is complement C3. As to the kind of experiment: ELISA, peptide coated on plate, serum C3 detected with anti-C3 antibody; relative to A2-0 (SPE B C192S).

Turning to GADGRNFYHVNWGWG [SPE B346~360 (as set forth in SEQ ID NO: 6)], the binding ability relative to reference A2-0 was > 50%.
ALGTGGGAGGFNGYQSAVVGIKP [SPE B376~398 (as set forth in SEQ ID NO: 8)]: the binding ability relative to reference A2-0 is > 50%.
